The supplement of paper PMC9112550, “Optimization of the antimicrobial peptide Bac7 by deep mutational scanning” (BMC Biology, 2022)

System: Escherichia coli TOP10
Assay: shrunken log2 fold change of peptide-encoding DNA abundance (4.5 h post-induction vs induction); higher = less antimicrobial activity (less host growth inhibition)
Conditions: time post-induction: 4.5 h; library: site-saturation at positions 5, 18, 19, 20
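Also: peptides expressed intracellularly from a pBAD plasmid library in pooled LB shake-flask culture, induced with 0.3% L-arabinose, DNA abundance read by NGS, three biological replicates, DESeq2 with apeglm shrinkage.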

Row | Sequence | shrunken log2 fold change
1 | RRIRARPPRLPRPRPRPHVAPRP | 0.114
2 | RRIRSRPPRLPRPRPRPKPLPRP | -0.107
3 | RRIRSRPPRLPRPRPRPEYQPRP | 0.0227
4 | RRIRERPPRLPRPRPRPCPHPRP | -0.105
5 | RRIRLRPPRLPRPRPRPSVHPRP | -0.61
6 | RRIRPRPPRLPRPRPRPVTMPRP | -0.297
7 | RRIRARPPRLPRPRPRPYRGPRP | -0.213
8 | RRIRIRPPRLPRPRPRPYYMPRP | -0.983
9 | RRIRNRPPRLPRPRPRPVCYPRP | -0.21
10 | RRIRPRPPRLPRPRPRPKNFPRP | -0.262
11 | RRIRNRPPRLPRPRPRPDHNPRP | -0.245
12 | RRIRIRPPRLPRPRPRPPNCPRP | -1.06
13 | RRIRSRPPRLPRPRPRPPDMPRP | -0.188
14 | RRIRGRPPRLPRPRPRPNTGPRP | 0.0864
15 | RRIRYRPPRLPRPRPRPANLPRP | -1.19
16 | RRIRHRPPRLPRPRPRPPEYPRP | 0.0328
17 | RRIRTRPPRLPRPRPRPVEHPRP | 0.0387
18 | RRIRSRPPRLPRPRPRPITEPRP | 0.0453
19 | RRIRHRPPRLPRPRPRPMNAPRP | -0.282

Row | Sequence | shrunken log2 fold change
20 | RRIRTRPPRLPRPRPRPFPMPRP | -0.596
21 | RRIRKRPPRLPRPRPRPIMFPRP | -0.21
22 | RRIRQRPPRLPRPRPRPNFYPRP | -0.0848
23 | RRIRYRPPRLPRPRPRPAPGPRP | 0.391
24 | RRIRWRPPRLPRPRPRPLDIPRP | 1.52
25 | RRIRKRPPRLPRPRPRPYWDPRP | -0.219
26 | RRIRVRPPRLPRPRPRPNPFPRP | -0.104
27 | RRIRCRPPRLPRPRPRPHKKPRP | 0.242
28 | RRIRARPPRLPRPRPRPWSDPRP | 0.15
29 | RRIRFRPPRLPRPRPRPMHYPRP | -0.0476
30 | RRIRVRPPRLPRPRPRPHACPRP | 0.0734
31 | RRIRVRPPRLPRPRPRPLAQPRP | 0.187
32 | RRIRVRPPRLPRPRPRPNVVPRP | -0.109
33 | RRIRTRPPRLPRPRPRPLSHPRP | -0.833
34 | RRIRYRPPRLPRPRPRPWQLPRP | -0.647
35 | RRIRERPPRLPRPRPRPITFPRP | -0.338
36 | RRIRERPPRLPRPRPRPTKCPRP | 0.0642
37 | RRIRARPPRLPRPRPRPKRKPRP | 0.654
38 | RRIRGRPPRLPRPRPRPIIYPRP | 0.0582

Row | Sequence | shrunken log2 fold change
39 | RRIRERPPRLPRPRPRPQNVPRP | 0.16
40 | RRIRRRPPRLPRPRPRPGGHPRP | 0.499
41 | RRIRMRPPRLPRPRPRPEERPRP | 2.6
42 | RRIRDRPPRLPRPRPRPHMGPRP | -0.174
43 | RRIRQRPPRLPRPRPRPHPNPRP | -0.389
44 | RRIRKRPPRLPRPRPRPKMHPRP | 0.483
45 | RRIRSRPPRLPRPRPRPELWPRP | 0.743
46 | RRIRLRPPRLPRPRPRPIFKPRP | -0.276
47 | RRIRWRPPRLPRPRPRPEQWPRP | 0.724
48 | RRIRPRPPRLPRPRPRPLPEPRP | 0.935
49 | RRIRLRPPRLPRPRPRPCASPRP | 0.259
50 | RRIRTRPPRLPRPRPRPATPPRP | 0.499
51 | RRIRCRPPRLPRPRPRPPCAPRP | 0.354
52 | RRIRKRPPRLPRPRPRPGHYPRP | 0.0236
53 | RRIRWRPPRLPRPRPRPINCPRP | -0.889
54 | RRIRVRPPRLPRPRPRPEAVPRP | 0.112
55 | RRIRQRPPRLPRPRPRPNIRPRP | 0.0516
56 | RRIRERPPRLPRPRPRPIFCPRP | 0.0456
57 | RRIRRRPPRLPRPRPRPWVTPRP | -0.0822
